Each block holds one binder with its values, some of them ahead of it.
Key:
[1] = molecular target: T1, CD37 (Leukocyte Antigen CD37, Tetraspanin-26) on cells (human, UniProt P11049 1-281); test: FACS, BDCM cells (AML); ratio to isotype control
T1 construct: In the assays it is the endogenous CD37 of human cancer cell lines, of AML patient PBMC and of patient tumor sections, or CD37 on recombinant 293T cells; also called CD37 antigen; CD37 expressing cells
T1 sequence: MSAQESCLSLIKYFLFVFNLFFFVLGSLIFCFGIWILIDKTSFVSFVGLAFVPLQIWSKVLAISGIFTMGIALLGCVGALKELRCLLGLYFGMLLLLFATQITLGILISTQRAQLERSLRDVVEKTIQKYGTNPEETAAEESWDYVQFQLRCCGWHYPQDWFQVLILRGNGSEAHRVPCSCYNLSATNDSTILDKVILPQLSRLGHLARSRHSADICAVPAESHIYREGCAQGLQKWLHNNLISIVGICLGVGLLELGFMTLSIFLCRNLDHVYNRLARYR
Procedure: (§1) HvCD37-6b15.1.1 was tested for binding to different NHL, CLL and AML cell lines (See, Table VI) grown in-vitro. HvCD37-6b15.1.1 and an Isotype matched control antibody were biotinylated using NHS LC biotin. In vitro cancer lines growing exponentially were used for all experiments. Briefly, cells were harvested by and washed by centrifugation. Antibodies were diluted to 5 μg/mL final concentration and co-incubated with cells at 4° C. for 1 hour. At the end of the incubation, cells were washed and incubated with secondary detection Streptavidin-PE antibody at a final 1:400 (1.25 μg/mL) dilution for 1 hr at 4° C. After washing un-bound secondary antibody, cells were analyzed by FACS, a total of 10,000 events were collected per sample. Data files were analyzed using FlowJo and Geometric Mean Fluorescence was determined and reported. Fluorescense ratio was calculated as follows: Geo mean AGS67C/Geo Mean Isotype control=MFR, a measure of fold expression above Isotype control.

[2] = molecular target: T1, CD37 (Leukocyte Antigen CD37, …); test: FACS, Mino cells (MCL); ratio to isotype control
Procedure: as §1

[3] = molecular target: T1, CD37 (Leukocyte Antigen CD37, …); test: FACS, EoL-1 cells (AML); ratio to isotype control
Procedure: as §1

[4] = molecular target: T1, CD37 (Leukocyte Antigen CD37, …); test: FACS, HL-60 cells (AML); ratio to isotype control
Text: (§2) To express HvCD37-6b15.1.1 MAb recombinantly in transfected cells, HvCD37-6b15.1.1 MAb variable heavy and light chain sequences were cloned upstream of the human heavy chain IgG2 and human light chain Igκ constant regions respectively. The complete HvCD37-6b15.1.1 MAb human heavy chain and light chain cassettes were cloned downstream of the CMV promoter/enhancer in a cloning vector. A polyadenylation site was included downstream of the MAb coding sequence. The recombinant HvCD37-6b15.1.1 MAb expressing construct was transfected into CHO cells. The HvCD37-6b15.1.1 MAb secreted from recombinant cells was evaluated for binding to human cancer cell lines expressing CD37 by FACS (See, Table VI). Binding was detected by flow cytometry.
as §1, with “Briefly, cells were harvested by and washed by centrifugation. Antibodies were diluted to 5 μg/mL final concentration and co-incubated with cells at 4° C. for 1 hour. At the end of the incubation, cells were washed and incubated with secondary detection Streptavidin-PE antibody at a final 1:400 (1.25 μg/mL) dilution for 1 hr at 4° C.” left out

[5] = molecular target: T1, CD37 (Leukocyte Antigen CD37, …); test: FACS, JVM-3 cells (CLL); ratio to isotype control
Procedure: as §1

[6] = molecular target: T1, CD37 (Leukocyte Antigen CD37, …); test: FACS, REC-1 cells (MCL); ratio to isotype control
Text: as §2
as §1, with “Briefly, cells were harvested by and washed by centrifugation. Antibodies were diluted to 5 μg/mL final concentration and co-incubated with cells at 4° C. for 1 hour. At the end of the incubation, cells were washed and incubated with secondary detection Streptavidin-PE antibody at a final 1:400 (1.25 μg/mL) dilution for 1 hr at 4° C.” left out

[7] = molecular target: T1, CD37 (Leukocyte Antigen CD37, …); test: FACS, THP-1 cells (AML); ratio to isotype control
Text: as §2
as §1, with “Briefly, cells were harvested by and washed by centrifugation. Antibodies were diluted to 5 μg/mL final concentration and co-incubated with cells at 4° C. for 1 hour. At the end of the incubation, cells were washed and incubated with secondary detection Streptavidin-PE antibody at a final 1:400 (1.25 μg/mL) dilution for 1 hr at 4° C.” left out

[8] = molecular target: T1, CD37 (Leukocyte Antigen CD37, …); test: FACS, MOLT-4 cells (ALL); ratio to isotype control
Procedure: as §1

[9] = molecular target: T1, CD37 (Leukocyte Antigen CD37, …); test: FACS, RS4-11 cells (ALL); ratio to isotype control
Text: as §2
as §1, with “Briefly, cells were harvested by and washed by centrifugation. Antibodies were diluted to 5 μg/mL final concentration and co-incubated with cells at 4° C. for 1 hour. At the end of the incubation, cells were washed and incubated with secondary detection Streptavidin-PE antibody at a final 1:400 (1.25 μg/mL) dilution for 1 hr at 4° C.” left out

[10] = molecular target: T1, CD37 (Leukocyte Antigen CD37, …); test: FACS, MOLM-13 cells (AML); ratio to isotype control
Procedure: as §1

[11] = molecular target: T1, CD37 (Leukocyte Antigen CD37, …); test: FACS, MV-4-11 cells (AML); ratio to isotype control
Procedure: as §1

[12] = molecular target: T1, CD37 (Leukocyte Antigen CD37, …); test: FACS, Kasumi-1 cells (AML); ratio to isotype control
Text: as §2
as §1, with “Briefly, cells were harvested by and washed by centrifugation. Antibodies were diluted to 5 μg/mL final concentration and co-incubated with cells at 4° C. for 1 hour. At the end of the incubation, cells were washed and incubated with secondary detection Streptavidin-PE antibody at a final 1:400 (1.25 μg/mL) dilution for 1 hr at 4° C.” left out

[13] = molecular target: T1, CD37 (Leukocyte Antigen CD37, …); test: FACS, Raji cells (Burkitt's); ratio to isotype control
Procedure: as §1

[14] = molecular target: T1, CD37 (Leukocyte Antigen CD37, …); test: FACS, SU-DHL-4 cells (DLBCL); ratio to isotype control
Procedure: as §1

[15] = molecular target: T1, CD37 (Leukocyte Antigen CD37, …); test: FACS, Daudi cells (Burkitt's); ratio to isotype control
Text: as §2
as §1, with “Briefly, cells were harvested by and washed by centrifugation. Antibodies were diluted to 5 μg/mL final concentration and co-incubated with cells at 4° C. for 1 hour. At the end of the incubation, cells were washed and incubated with secondary detection Streptavidin-PE antibody at a final 1:400 (1.25 μg/mL) dilution for 1 hr at 4° C.” left out

[16] = molecular target: T1, CD37 (Leukocyte Antigen CD37, …); test: FACS, Ramos cells (Burkitt's); ratio to isotype control
Text: as §2
as §1, with “Briefly, cells were harvested by and washed by centrifugation. Antibodies were diluted to 5 μg/mL final concentration and co-incubated with cells at 4° C. for 1 hour. At the end of the incubation, cells were washed and incubated with secondary detection Streptavidin-PE antibody at a final 1:400 (1.25 μg/mL) dilution for 1 hr at 4° C.” left out

[17] = molecular target: T1, CD37 (Leukocyte Antigen CD37, …); test: FACS, WSU-DLCL-2 cells (DLBCL); ratio to isotype control
Text: as §2
as §1, with “Briefly, cells were harvested by and washed by centrifugation. Antibodies were diluted to 5 μg/mL final concentration and co-incubated with cells at 4° C. for 1 hour. At the end of the incubation, cells were washed and incubated with secondary detection Streptavidin-PE antibody at a final 1:400 (1.25 μg/mL) dilution for 1 hr at 4° C.” left out

[18] = molecular target: T1, CD37 (Leukocyte Antigen CD37, …); test: FACS, DOHH-2 cells (Follicular); ratio to isotype control
Text: as §2
as §1, with “Briefly, cells were harvested by and washed by centrifugation. Antibodies were diluted to 5 μg/mL final concentration and co-incubated with cells at 4° C. for 1 hour. At the end of the incubation, cells were washed and incubated with secondary detection Streptavidin-PE antibody at a final 1:400 (1.25 μg/mL) dilution for 1 hr at 4° C.” left out

[19] = molecular target: T1, CD37 (Leukocyte Antigen CD37, …); test: FACS, Mino XCL cells (MCL, in-vivo xenograft); ratio to isotype control
[20] = molecular target: T1, CD37 (Leukocyte Antigen CD37, …); test: FACS, KG-1 cells (AML); ratio to secondary detection (high isotype background)
Text: as §2
as §1, with “At the end of the incubation, cells were washed and incubated with secondary detection Streptavidin-PE antibody at a final 1:400 (1.25 μg/mL) dilution for 1 hr at 4° C.” left out, “Fluorescense ratio was calculated as follows: Geo mean AGS67C/Geo Mean Isotype control=MFR, a measure of fold expression above Isotype control.” left out

[21] = molecular target: T1, CD37 (Leukocyte Antigen CD37, …); test: FACS, Ramos RR XCL cells (Burkitt's, rituxan resistant); ratio to isotype control
Procedure: as §1

[22] = molecular target: T1, CD37 (Leukocyte Antigen CD37, …); test: FACS, Hel 92.1 cells (AML); ratio to secondary detection (high isotype background)
Procedure: as §1, with “Fluorescense ratio was calculated as follows: Geo mean AGS67C/Geo Mean Isotype control=MFR, a measure of fold expression above Isotype control.” left out

[23] = molecular target: T1, CD37 (Leukocyte Antigen CD37, …); test: FACS, Granta-519 cells (MCL); ratio to secondary detection (high isotype background)
Text: as §2
as §1, with “At the end of the incubation, cells were washed and incubated with secondary detection Streptavidin-PE antibody at a final 1:400 (1.25 μg/mL) dilution for 1 hr at 4° C.” left out, “Fluorescense ratio was calculated as follows: Geo mean AGS67C/Geo Mean Isotype control=MFR, a measure of fold expression above Isotype control.” left out

[24] = molecular target: T1, CD37 (Leukocyte Antigen CD37, …); test: FACS on cells expressing CD37

MFR (Mean Florescence ratio) [1]: 64 | MFR (Mean Florescence ratio) [2]: 301 | MFR (Mean Florescence ratio) [3]: 3 | MFR (Mean Florescence ratio) [4]: 5 | MFR (Mean Florescence ratio) [5]: 122 | MFR (Mean Florescence ratio) [6]: 341 | MFR (Mean Florescence ratio) [7]: 23 | MFR (Mean Florescence ratio) [8]: 3 | MFR (Mean Florescence ratio) [9]: 26 | MFR (Mean Florescence ratio) [10]: 6 | MFR (Mean Florescence ratio) [11]: 8 | MFR (Mean Florescence ratio) [12]: 9 | MFR (Mean Florescence ratio) [13]: 135 | MFR (Mean Florescence ratio) [14]: 662 | MFR (Mean Florescence ratio) [15]: 39 | MFR (Mean Florescence ratio) [16]: 534 | MFR (Mean Florescence ratio) [17]: 554 | MFR (Mean Florescence ratio) [18]: 581 | MFR (Mean Florescence ratio) [19]: 316 | MFR (Mean Florescence ratio) [20]: 10 | MFR (Mean Florescence ratio) [21]: 140 | MFR (Mean Florescence ratio) [22]: 28 | MFR (Mean Florescence ratio) [23]: 372
B1: HvCD37-6b15.1.1 MAb (recombinant, expressed in CHO cells, human IgG2 / kappa) (antibody, V domains shown)
VH: QVQLQQWGAGLLKPSETLSLTCAVYGGSFSPYYWSWIRQPPGKGLEWIGEINHSGSTNYNPSLKSRVTISVDTSKNQFSLKLSSVTAADTAVYYCARRAGDFDYWGQGTLVTVSS
VL: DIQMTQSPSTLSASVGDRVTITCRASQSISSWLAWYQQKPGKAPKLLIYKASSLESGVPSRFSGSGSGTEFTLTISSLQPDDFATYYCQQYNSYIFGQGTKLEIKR
modifications: typical heavy chain of purified CHO material: N-terminal glutamine modified to pyroglutamate and C-terminal lysine deleted; biotinylated with NHS LC biotin for the FACS assays
notes: Fully human antibody: human variable regions on human IgG2 and human kappa constant regions, made in CHO cells (ATCC PTA-120464); also called HvCD37-6b15.1.1 IgG2; AGS67C

binding result [24]: binds
B2: HvCD37-6b15.1.1 MAb purified from hybridoma (VelocImmune mouse) (antibody, V domains shown)
VH: QVQLQQWGAGLLKPSETLSLTCAVYGGSFSPYYWSWIRQPPGKGLEWIGEINHSGSTNYNPSLKSRVTISVDTSKNQFSLKLSSVTAADTAVYYCARRAGDFDYWGQGTLVTVSS
VL: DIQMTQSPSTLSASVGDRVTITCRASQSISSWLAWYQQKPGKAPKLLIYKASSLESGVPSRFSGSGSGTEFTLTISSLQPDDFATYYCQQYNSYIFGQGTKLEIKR
notes: also called HvCD37-6b15.1.1 purified from hybridoma; MAb material derived from hybridoma cells

From patent publication US20160051694A1 (AGENSYS, published 2016)
